Assay results from CN111995674A (INST MILITARY MEDICINE ACADEMY MILITARY SCIENCES PLA, dated 2020).

Target: RBD重组蛋白 (SARS-CoV-2 S蛋白RBD区, 毕赤酵母GJK0601表达) (SARS-CoV-2)

B1: 人鼠嵌合全抗体mhC3 (antibody, V domains shown)
VH: EVQLVESGGDLVKPGGSLKLSCAASGFTFNTYAMNWVRQTPGKGLEWVARIRSKSNNYATYYADSVKDRFTISRDDSQSMLYLQMNNLKTEDTAMYYCVTPYYGNYADWFTYWGQGTSVTVSS
VL: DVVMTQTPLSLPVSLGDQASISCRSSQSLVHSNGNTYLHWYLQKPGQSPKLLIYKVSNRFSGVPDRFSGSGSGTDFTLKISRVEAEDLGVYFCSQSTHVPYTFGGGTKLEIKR
notes: also called mhC3抗体; C3 (图5、图6)
- EC50: 0.0129 nM
